± gives the standard deviation of the averaged measurements.
The sequences below were run on ATP (assay: switch fluorescence ratio, 500 uM ATP over buffer (Cy3 cluster intensity, sum of 5 cycles each) (fold (ratio)); higher = stronger signal-on switching upon ATP binding; sequences stand for … in TCGTCGGCAGCGTCAGATGTGTATAAGAGACAGTTTTTTTTTTTTTTTTTTTTTTTTT…TC). Details: aptamer strand: ATP DNA aptamer (quencher-CACCTGGGGGAGTATTGCGGAGGAAGG + anchor), 100 nM annealed; ATP concentration: 500 uM.
Method in brief: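 For every switch-domain sequence, the fluorescence ratio is the mean of per-cluster values, each being summed target-cycle Cy3 intensity over summed buffer-cycle Cy3 intensity. Clusters outside 100-1000 RFU were excluded. On a modified Illumina MiSeq flow-cell, the Cy3-labelled switching-strand clusters were annealed to 100 nM quencher-labelled ATP aptamer, imaged in selection buffer and then after 15 min with 500 uM ATP at 22 °C. Five such cycles were run, with NaOH stripping and re-annealing between them.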
For TCGTTTGGAG, the switch fluorescence ratio was 0.998 ± 0.022. In the case of TCGTTTGGGG, the switch fluorescence ratio is reported as 1.05 ± 0.061. With TCGTTTGGGT the switch fluorescence ratio was 0.978 ± 0.035. TCGTTTTCCT gave a switch fluorescence ratio of 1.02 ± 0.043. Sequence TCTAAATCTT has a switch fluorescence ratio of 1.01 ± 0.011. Sequence TCTAAGTAAC has a switch fluorescence ratio of 1 ± 0.025. Work on TCTAAGTATT yielded a switch fluorescence ratio of 1.02 ± 0.026. In the case of TCTAAGTTGT, the switch fluorescence ratio is reported as 1.002 ± 0.0058. Sequence TCTAATTGGG has a switch fluorescence ratio of 1.01 ± 0.037. TCTAATTTCC showed a switch fluorescence ratio of 1.05 ± 0.045. TCTAGTTTAT was tested, and the switch fluorescence ratio was 0.987 ± 0.033. In the case of TCTATAATGT, the switch fluorescence ratio is reported as 0.965 ± 0.025. Work on TCTATACTTT yielded a switch fluorescence ratio of 1 ± 0.021. In the case of TCTATGGCTA, the switch fluorescence ratio is reported as 1.03 ± 0.03. Sequence TCTATGGGGG has a switch fluorescence ratio of 0.986 ± 0.019. With TCTATGGTGA the switch fluorescence ratio was 1.0391 ± 0.00096. For TCTATTGTAA, the switch fluorescence ratio was 0.991 ± 0.049. With TCTATTTGCA the switch fluorescence ratio was 1 ± 0.042. TCTATTTGTA was tested, and the switch fluorescence ratio was 0.9993 ± 0.0071. TCTATTTTGT showed a switch fluorescence ratio of 0.988 ± 0.017. TCTCACGGAA was tested, and the switch fluorescence ratio was 1.68 ± 0.19. With TCTCGACTCA the switch fluorescence ratio was 0.999 ± 0.02. With TCTCGCGGGA the switch fluorescence ratio was 0.97 ± 0.023. Work on TCTCGGGGCG yielded a switch fluorescence ratio of 1 ± 0.055. TCTCTTCCGT was tested, and the switch fluorescence ratio was 1.22 ± 0.056. TCTGAATTCA was tested, and the switch fluorescence ratio was 0.972 ± 0.026. Work on TCTGACGGTG yielded a switch fluorescence ratio of 1.01 ± 0.017. TCTGAGGGTT showed a switch fluorescence ratio of 1.13 ± 0.12. With TCTGAGTAGG the switch fluorescence ratio was 1 ± 0.037. For TCTGATATAG, the switch fluorescence ratio was 1 ± 0.003. TCTGATGAAT gave a switch fluorescence ratio of 1.02 ± 0.034. Work on TCTGCCACCT yielded a switch fluorescence ratio of 1.023 ± 0.0075. TCTGCTAAAG was tested, and the switch fluorescence ratio was 1.01 ± 0.022. In the case of TCTGCTAAGG, the switch fluorescence ratio is reported as 0.98406 ± 0.00079. In the case of TCTGCTAGTT, the switch fluorescence ratio is reported as 1.02 ± 0.021. TCTGCTTGAG showed a switch fluorescence ratio of 1.03 ± 0.022. In the case of TCTGGAGTT, the switch fluorescence ratio is reported as 1.077 ± 0.005. TCTGGATTGT showed a switch fluorescence ratio of 0.97294 ± 3.9e-05. TCTGGCCTTC gave a switch fluorescence ratio of 1.09 ± 0.1. TCTGGCGGGG showed a switch fluorescence ratio of 1.21 ± 0.38. TCTGGCGTTG gave a switch fluorescence ratio of 0.983 ± 0.01. With TCTGGGACGT the switch fluorescence ratio was 0.9824 ± 0.0033. In the case of TCTGGGCAGC, the switch fluorescence ratio is reported as 1.04 ± 0.05. TCTGGGGATG was tested, and the switch fluorescence ratio was 0.974 ± 0.072. TCTGGGGCGT gave a switch fluorescence ratio of 1.007 ± 0.0086. TCTGGGGCTG showed a switch fluorescence ratio of 0.969 ± 0.016. TCTGGGGGGA was tested, and the switch fluorescence ratio was 1.01 ± 0.019. In the case of TCTGGGGGTG, the switch fluorescence ratio is reported as 1.02 ± 0.059. In the case of TCTGGGGTGT, the switch fluorescence ratio is reported as 1.13 ± 0.18. TCTGGGTATG showed a switch fluorescence ratio of 0.988 ± 0.016. Sequence TCTGGGTGGT has a switch fluorescence ratio of 0.977 ± 0.042. TCTGGTAGAG was tested, and the switch fluorescence ratio was 1.02 ± 0.023. TCTGGTAGTG gave a switch fluorescence ratio of 1.03 ± 0.035. In the case of TCTGGTCGCT, the switch fluorescence ratio is reported as 1.018 ± 0.01. Sequence TCTGTATCTA has a switch fluorescence ratio of 0.993 ± 0.021. Sequence TCTGTCAAGG has a switch fluorescence ratio of 1 ± 0.034. In the case of TCTGTCCCTT, the switch fluorescence ratio is reported as 1.01 ± 0.024. For TCTGTGCAGG, the switch fluorescence ratio was 1 ± 0.015. TCTGTGCTGG gave a switch fluorescence ratio of 0.98 ± 0.024. For TCTGTGGCAA, the switch fluorescence ratio was 1.18 ± 0.28. TCTGTGGCTG gave a switch fluorescence ratio of 1.05 ± 0.1. In the case of TCTGTGGTGT, the switch fluorescence ratio is reported as 1.026 ± 0.0028. TCTGTTATCG showed a switch fluorescence ratio of 0.983 ± 0.043. For TCTGTTCTT, the switch fluorescence ratio was 1 ± 0.023. Sequence TCTGTTGAAT has a switch fluorescence ratio of 1.01 ± 0.072. Work on TCTGTTGGGG yielded a switch fluorescence ratio of 0.992 ± 0.038. With TCTTAAGGGC the switch fluorescence ratio was 0.972 ± 0.01. For TCTTAATGTA, the switch fluorescence ratio was 0.985 ± 0.015. TCTTACAGTA showed a switch fluorescence ratio of 1.09 ± 0.04. TCTTAGACAT showed a switch fluorescence ratio of 0.9646 ± 0.0028. With TCTTATAAAC the switch fluorescence ratio was 1.02 ± 0.023. Sequence TCTTATCTGG has a switch fluorescence ratio of 0.972 ± 0.012. TCTTATTGG gave a switch fluorescence ratio of 1.02 ± 0.028. TCTTATTGGG gave a switch fluorescence ratio of 0.995 ± 0.042. In the case of TCTTCACTAA, the switch fluorescence ratio is reported as 1 ± 0.052. TCTTCGACCG showed a switch fluorescence ratio of 1.31 ± 0.28. TCTTCGGCGA was tested, and the switch fluorescence ratio was 1.46 ± 0.16. TCTTCGGTTT gave a switch fluorescence ratio of 1.11 ± 0.12. With TCTTGAAGG the switch fluorescence ratio was 0.953 ± 0.023. TCTTGAGCTT was tested, and the switch fluorescence ratio was 1.04 ± 0.03. TCTTGCCCTG was tested, and the switch fluorescence ratio was 0.977 ± 0.058. TCTTGGAGAA gave a switch fluorescence ratio of 1.05 ± 0.06. Work on TCTTGGATGG yielded a switch fluorescence ratio of 0.986 ± 0.04. For TCTTGGCTTT, the switch fluorescence ratio was 0.976 ± 0.019. TCTTGGGATT gave a switch fluorescence ratio of 0.981 ± 0.0029. With TCTTGGGGGG the switch fluorescence ratio was 1 ± 0.019. Sequence TCTTGGTTTT has a switch fluorescence ratio of 1.02 ± 0.044. TCTTGTCGGT was tested, and the switch fluorescence ratio was 1 ± 0.034. Work on TCTTTAAGGT yielded a switch fluorescence ratio of 1.04 ± 0.023. TCTTTACAGT showed a switch fluorescence ratio of 1.05 ± 0.032. For TCTTTCGGTG, the switch fluorescence ratio was 1.02 ± 0.04. TCTTTGATTT gave a switch fluorescence ratio of 1 ± 0.048. TCTTTGCGCC showed a switch fluorescence ratio of 1.06 ± 0.019. TCTTTTAAGT showed a switch fluorescence ratio of 0.97 ± 0.033. Sequence TCTTTTAATT has a switch fluorescence ratio of 1.05 ± 0.07. Work on TCTTTTATGG yielded a switch fluorescence ratio of 1.04 ± 0.093. TCTTTTCAGC showed a switch fluorescence ratio of 0.992 ± 0.045. For TCTTTTGGAG, the switch fluorescence ratio was 0.996 ± 0.045. Work on TCTTTTGGTA yielded a switch fluorescence ratio of 0.9895 ± 0.0052. TCTTTTTTCC gave a switch fluorescence ratio of 1.1 ± 0.1. Sequence TGAAAAAAAC has a switch fluorescence ratio of 0.9871 ± 0.0072. TGAAAAAAGA was tested, and the switch fluorescence ratio was 0.988 ± 0.019. Sequence TGAAAAAGTG has a switch fluorescence ratio of 0.9941 ± 0.0077. For TGAAAAATGG, the switch fluorescence ratio was 1.01 ± 0.031. Sequence TGAAAAATTT has a switch fluorescence ratio of 0.988 ± 0.025. In the case of TGAAAACGGT, the switch fluorescence ratio is reported as 1 ± 0.035. In the case of TGAAAAGTTG, the switch fluorescence ratio is reported as 0.987 ± 0.1. In the case of TGAAAATAGG, the switch fluorescence ratio is reported as 0.9771 ± 0.0068. TGAAAATGGT showed a switch fluorescence ratio of 0.996 ± 0.015. Sequence TGAAACACCG has a switch fluorescence ratio of 1.46 ± 0.66. With TGAAACATTT the switch fluorescence ratio was 0.975 ± 0.036. In the case of TGAAACGTAT, the switch fluorescence ratio is reported as 0.993 ± 0.023. With TGAAAGATTT the switch fluorescence ratio was 1 ± 0.03. TGAAAGCCAC showed a switch fluorescence ratio of 1.1 ± 0.024. TGAAAGGGGA was tested, and the switch fluorescence ratio was 1.03 ± 0.054. TGAAATCATA was tested, and the switch fluorescence ratio was 0.996 ± 0.037. TGAAATTCTT was tested, and the switch fluorescence ratio was 1.012 ± 0.0094. With TGAACATTTT the switch fluorescence ratio was 1.07 ± 0.079. For TGAACGGTTC, the switch fluorescence ratio was 1.02 ± 0.021. TGAACTCGGG was tested, and the switch fluorescence ratio was 0.989 ± 0.017. Sequence TGAACTCTAG has a switch fluorescence ratio of 1.02 ± 0.059. For TGAACTTGCT, the switch fluorescence ratio was 1.02 ± 0.074. TGAAGAATGT showed a switch fluorescence ratio of 1.02 ± 0.017. TGAAGACATT gave a switch fluorescence ratio of 1.02 ± 0.04. TGAAGACCAT was tested, and the switch fluorescence ratio was 1.016 ± 0.0058. In the case of TGAAGAGGAT, the switch fluorescence ratio is reported as 1.09 ± 0.15. With TGAAGATCGC the switch fluorescence ratio was 1.02 ± 0.018. TGAAGCATTG was tested, and the switch fluorescence ratio was 1.35 ± 0.38. With TGAAGGATGG the switch fluorescence ratio was 1 ± 0.027. In the case of TGAAGGCAGG, the switch fluorescence ratio is reported as 1.01 ± 0.072. TGAAGGCCTT was tested, and the switch fluorescence ratio was 0.9953 ± 0.0011. In the case of TGAAGGGAAA, the switch fluorescence ratio is reported as 1 ± 0.051. In the case of TGAAGGGGAG, the switch fluorescence ratio is reported as 1.01 ± 0.069. With TGAAGGGGGG the switch fluorescence ratio was 0.984 ± 0.034. Work on TGAAGGGTGC yielded a switch fluorescence ratio of 1.02 ± 0.054. TGAAGGTCGT gave a switch fluorescence ratio of 0.99 ± 0.029. With TGAAGGTTGG the switch fluorescence ratio was 1.02 ± 0.025. For TGAAGTCG, the switch fluorescence ratio was 0.999 ± 0.027. With TGAAGTGGGG the switch fluorescence ratio was 0.954 ± 0.016. In the case of TGAAGTTTAC, the switch fluorescence ratio is reported as 2.03 ± 1.4. In the case of TGAAGTTTGC, the switch fluorescence ratio is reported as 0.999 ± 0.01. TGAAGTTTTT showed a switch fluorescence ratio of 1.02 ± 0.064. TGAATACGGG showed a switch fluorescence ratio of 1.006 ± 0.004. With TGAATCAATT the switch fluorescence ratio was 1.06 ± 0.026. TGAATCAGG showed a switch fluorescence ratio of 1.01 ± 0.073. Sequence TGAATCCTCG has a switch fluorescence ratio of 1.05 ± 0.012. Sequence TGAATGCTGA has a switch fluorescence ratio of 0.961 ± 0.017. TGAATGGTTT gave a switch fluorescence ratio of 0.997 ± 0.031. Work on TGAATGTAGC yielded a switch fluorescence ratio of 0.9781 ± 0.0024. In the case of TGAATTTGGG, the switch fluorescence ratio is reported as 0.997 ± 0.064. Sequence TGACAATCCT has a switch fluorescence ratio of 1.05 ± 0.016. TGACAGTTAT showed a switch fluorescence ratio of 1.06 ± 0.038. TGACCCGTAC was tested, and the switch fluorescence ratio was 2.64 ± 1.7.

From the supplement of paper PMC10126150
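Further: ATP exposure 15 min at 22 °C before imaging.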
